In US20210371503A1 (UNIVERSITY OF COLOGNE, published 2021) one finds EC50 and Kd data, which are given here for two molecules.

The target of assay [1] is T1, prefusion stabilized SARS-CoV-2 S ectodomain (SARS-CoV-2, UniProt P0DTC2 14-1208).
T1 construct: also called SARS-CoV-2 spike ectodomain; ectodomain of the spike (S) homotrimer of SARS-CoV-2
In words: ELISA, coated S ectodomain [cont'd]. (ELISA stands for enzyme-linked immunosorbent assay.)

The target of assay [2] is T1, prefusion stabilized SARS-CoV-2 S …. Nature of the assay: assay not stated; row Binding Affinity Spike Trimer, construct not given.

One may read the EC50 as the concentration that produces a half-maximal response. A higher EC50 goes with a need for much substance. Broadly, the Kd is the constant that tells how readily two partners part at equilibrium.

B1: MnC4t2p2_A4 (antibody, V domains shown)
VH: QVQLVQSGSELKKPGASVKISCKASGYIFINYAMNWVRQAPGQGLEWMGWINTNTGNPTYAQDFTGRFVFSLDTSLSTAYLQISSLEAEDTAVYYCAKIGSRNSLGVWGQGTLVTVSA
VL: EIVLTQSPGTLSLSPGERATLSCRASHSVDRSYLAWYQQKPGLAPRLLIYGASSRATGIPDRFSGSGSGTDFTLTISRLEPEDFALYYCQHFGTSSVTFGRGTRLEIK
With B1, the concentration giving a half-maximal response (EC50) in assay [1] is 0.02 µg/mL.

B2: DZIF-10c (antibody, V domains shown)
VH: QVQLVESGGGVVQPGRSLRLSCAATGFTFRRYGMHWVRQAPGKGLEWVAGILFDGSNKYYVDSVKGRFTISRDSSRNTLYLQLNSLRREDTAVYYCAKGGDYEWELLESWGQGTLVTVSS
VL: DIQMTQSPSTVSASVGDRVTITCRASQSIDNWLAWYQEKPGKAPKVLIYKASSLESGVPSRFSGRGSGTEFTLTISSLQPGDFATYYCQHYHSFPLTFGGGTKVDIKR
notes: also called HbnC3t1p1_F4(-K); EX14870
On to B2, for which binding in assay [2] was put at a Kd of 0.65 nM.
